Residue numbers refer to the chain shown, from its start. Numbers in names are those of the source.
B1: Y35A: E. coli LigA with Tyr35 replaced by alanine (protein, UniProt P15042 1-671, looked up, variant Y35A)
DNA ligase: MESIEQQLTELRTTLRHHEYLYHVMDAPEIPDAEADRLMRELRELETKHPELITPDSPTQRVGAAPLAAFSQIRHEVPMLSLDNVFDEESFLAFNKRVQDRLKNNEKVTWCCELKLDGLAVSILYENGVLVSAATRGDGTTGEDITSNVRTIRAIPLKLHGENIPARLEVRGEVFLPQAGFEKINEDARRTGGKVFANPRNAAAGSLRQLDPRITAKRPLTFFCYGVGVLEGGELPDTHLGRLLQFKKWGLPVSDRVTLCESAEEVLAFYHKVEEDRPTLGFDIDGVVIKVNSLAQQEQLGFVARAPRWAVAFKFPAQEQMTFVRDVEFQVGRTGAITPVARLEPVHVAGVLVSNATLHNADEIERLGLRIGDKVVIRRAGDVIPQVVNVVLSERPEDTREVVFPTHCPVCGSDVERVEGEAVARCTGGLICGAQRKESLKHFVSRRAMDVDGMGDKIIDQLVEKEYVHTPADLFKLTAGKLTGLERMGPKSAQNVVNALEKAKETTFARFLYALGIREVGEATAAGLAAYFGTLEALEAASIEELQKVPDVGIVVASHVHNFFAEESNRNVISELLAEGVHWPAPIVINAEEIDSPFAGKTVVLTGSLSQMSRDDAKARLVELGAKVAGSVSKKTDLVIAGEAAGSKLAKAQELGIEVIDEAEMLRLLGS
B2: D36A: E. coli LigA with Asp36 replaced by alanine (protein, UniProt P15042 1-671, looked up, variant D36A)
DNA ligase: B1 DNA ligase with A35Y, D36A
B3: NΔ38: N-terminal deletion of E. coli DNA ligase LigA eliminating part of domain Ia (protein, UniProt P15042 39-671, looked up, fragment)
chain: MRELRELETKHPELITPDSPTQRVGAAPLAAFSQIRHEVPMLSLDNVFDEESFLAFNKRVQDRLKNNEKVTWCCELKLDGLAVSILYENGVLVSAATRGDGTTGEDITSNVRTIRAIPLKLHGENIPARLEVRGEVFLPQAGFEKINEDARRTGGKVFANPRNAAAGSLRQLDPRITAKRPLTFFCYGVGVLEGGELPDTHLGRLLQFKKWGLPVSDRVTLCESAEEVLAFYHKVEEDRPTLGFDIDGVVIKVNSLAQQEQLGFVARAPRWAVAFKFPAQEQMTFVRDVEFQVGRTGAITPVARLEPVHVAGVLVSNATLHNADEIERLGLRIGDKVVIRRAGDVIPQVVNVVLSERPEDTREVVFPTHCPVCGSDVERVEGEAVARCTGGLICGAQRKESLKHFVSRRAMDVDGMGDKIIDQLVEKEYVHTPADLFKLTAGKLTGLERMGPKSAQNVVNALEKAKETTFARFLYALGIREVGEATAAGLAAYFGTLEALEAASIEELQKVPDVGIVVASHVHNFFAEESNRNVISELLAEGVHWPAPIVINAEEIDSPFAGKTVVLTGSLSQMSRDDAKARLVELGAKVAGSVSKKTDLVIAGEAAGSKLAKAQELGIEVIDEAEMLRLLGS
B4: NΔ78: N-terminal deletion of E. coli DNA ligase LigA eliminating domain Ia (protein, UniProt P15042 79-671, looked up, fragment)
chain: MLSLDNVFDEESFLAFNKRVQDRLKNNEKVTWCCELKLDGLAVSILYENGVLVSAATRGDGTTGEDITSNVRTIRAIPLKLHGENIPARLEVRGEVFLPQAGFEKINEDARRTGGKVFANPRNAAAGSLRQLDPRITAKRPLTFFCYGVGVLEGGELPDTHLGRLLQFKKWGLPVSDRVTLCESAEEVLAFYHKVEEDRPTLGFDIDGVVIKVNSLAQQEQLGFVARAPRWAVAFKFPAQEQMTFVRDVEFQVGRTGAITPVARLEPVHVAGVLVSNATLHNADEIERLGLRIGDKVVIRRAGDVIPQVVNVVLSERPEDTREVVFPTHCPVCGSDVERVEGEAVARCTGGLICGAQRKESLKHFVSRRAMDVDGMGDKIIDQLVEKEYVHTPADLFKLTAGKLTGLERMGPKSAQNVVNALEKAKETTFARFLYALGIREVGEATAAGLAAYFGTLEALEAASIEELQKVPDVGIVVASHVHNFFAEESNRNVISELLAEGVHWPAPIVINAEEIDSPFAGKTVVLTGSLSQMSRDDAKARLVELGAKVAGSVSKKTDLVIAGEAAGSKLAKAQELGIEVIDEAEMLRLLGS

What was measured:
[1] = tested on: E. coli LigA; format: biochemical; settings: for Nick Joining Activity (% of WT): specific activity by protein titration under steady-state conditions, normalized to wild-type ligase
Procedure: (§1) FIG. 12A: Aliquots (5 μg) of wild-type (WT) E. coli ligase, N-terminal deletion mutants NΔ38 and NΔ78, and the full-length ligase proteins containing the indicated alanine mutations in domain Ia were analyzed by SDS-PAGE. A Coomassie blue-stained gel is shown. FIG. 12B: Ligase adenylation reaction mixtures (20 μl) containing 50 mM Tris-HCl (pH 7.5), 5 mM DTT, 5 mM MgCl2, 1 μM [α-^32P]NAD^+ and 8 pmol of WT ligase, NΔ38, NΔ78, or the indicated alanine mutants were incubated for 5 min at 37° C. The reaction products were resolved by SDS-PAGE and visualized by autoradiography. FIG. 12C: Nick joining reaction mixtures (20 μl) containing 50 mM Tris-HCl (pH 7.5), 10 mM (NH4)2SO4, 5 mM DTT, 5 mM MgCl2, 20 μM NAD^+, 1 pmol of ^32P-labeled nicked DNA, and increasing amounts of WT ligase or the indicated alanine mutants were incubated for 10 min at 22° C. The extents of ligation are plotted as a function of input protein.
To further probe the role of domain Ia in NAD^+ recognition and nucleotidyl transfer, single alanine substitutions were introduced at six positions in the Ia domain of E. coli LigA. The six mutated Eco ligase residues—Glu10, Tyr22, His23, Asp32, Tyr35, and Asp36—correspond to the six residues that were subjected to alanine scanning mutagenesis in AmEPV ligase (FIG. 11). […] The conserved positions are denoted by shaded boxes in FIG. 11. The Eco ligase mutants E10A, Y22A, H23A, D32A, Y35A, and D36A were produced in E. coli and purified by Ni-agarose chromatography in parallel with wild-type ligase (FIG. 12A).
To evaluate the roles of charge, hydrogen bonding potential, and steric constraints in the functions of the domain Ia residues implicated in the step 1 reaction with NAD^+, the effects of conservative substitutions were tested. Tyr22 and Tyr35 were replaced by Phe and Ser, His23 was changed to Tyr, and Asp32 and Asp36 were mutated to Glu and Asn. The recombinant mutant ligases were purified from soluble bacterial extracts by Ni-agarose chromatography (FIG. 15A). The specific activity of each mutant was determined under steady-state conditions by protein titration and normalized to the specific activity of wild-type ligase.

[2] = tested on: E. coli LigA; format: biochemical; settings: qualitative
Procedure: as §1
FIG. 15A: Aliquots (5 μg) of wild-type (WT) E. coli ligase and proteins containing the indicated mutations in domain Ia were analyzed by SDS-PAGE. The Coomassie blue-stained gel is shown. The positions and sizes (in kDa) of marker proteins are indicated on the left. FIG. 15B: Ligase adenylation reaction mixtures (20 μl) containing 50 mM Tris-HCl (pH 7.5), 5 mM DTT, 5 mM MgCl2, 1 μM [α-^32P]NAD^+ and 8 pmol of WT ligase or the indicated mutants were incubated for 5 min at 37° C. The reaction products were resolved by SDS-PAGE and visualized by autoradiography.
Reaction mixtures containing (per 20 μl) 50 mM Tris-HCl (pH 7.5), 5 mM DTT, 5 mM MgCl2, 1 μM [^32P-AMP]NAD^+ and 8 pmol of ligase were incubated at 22° C. Aliquots (20 μl) were withdrawn at 15, 30, 60 and 120 s and then quenched immediately with SDS. The products were analyzed by SDS-PAGE. Formation of the ligase-[^32P]AMP adduct is plotted as a function of time.
The first step in DNA ligation involves formation of a covalent enzyme-adenylate intermediate.

[3] = tested on: E. coli LigA; format: biochemical; settings: for phosphodiester formation at pre-adenylated nick: qualitative, magnesium, no added NAD+
Procedure: (§2) Reaction mixtures containing 1 pmol of ^32P-labeled nicked DNA-adenylate (AppDNA) and either 8 pmol of wild-type (WT) E. coli ligase, deletion mutants NΔ38 and NΔ78, or the full-length ligase proteins containing the indicated alanine mutations in domain Ia were incubated for 60 min at 22° C. The reaction products were resolved by denaturing PAGE. An autoradiograph of the gel is shown. Control reaction mixtures containing either ^32P-labeled nicked DNA-adenylate (AppDNA) or nicked DNA (pDNA) substrates and no ligase are shown in lanes -. The positions of the pDNA, AppDNA, and ligated 36-mer DNA strands are indicated by arrows on the right. The position of the radiolabeled phosphate of AppDNA is denoted by •. The nicked DNA-adenylate substrate used in the ligation reactions is illustrated at the bottom.
(§3) The nicked DNA-adenylate substrate is illustrated in FIG. 13. The DNA-adenylate ligation reaction mixtures (20 μl) contained 50 mM Tris-HCl (pH 7.5), 5 mM DTT, 5 mM MgCl2, 200 fmol of nicked DNA-adenylate substrate, 2 pmol of wild-type or mutant EcoLigA proteins as specified were incubated at 22° C. The sealing reactions were initiated by adding ligase. Aliquots (20 μl) were withdrawn at the times specified and quenched immediately with EDTA and formamide. The products were resolved by denaturing PAGE and the extents of ligation were determined by scanning the gel with a phosphorimager. The extent of strand joining is plotted as a function of reaction time.
(§4) The third step of the ligation pathway entails attack of the 3′ OH of the nick on the 5′ PO4 of the DNA-adenylate to form a phosphodiester and release AMP. Step 3 of the ligation reaction was assayed using a pre-adenylated nicked DNA substrate labeled with ^32P on the 5′ PO4 of the DNA-adenylate strand (FIG. 13).

[4] = tested on: E. coli LigA; settings: reference 19; cited from earlier work
[5] = molecular target: E. coli LigA (Escherichia coli, UniProt P15042); format: biochemical
Procedure: as §2, §3, §4

Molecule	Nick Joining Activity (% of WT) [1]	ligase adenylation (ligase-AMP formation) with NAD+ [2]	phosphodiester formation at pre-adenylated nick [3]	nick ligation (qualitative) [1]	effect on rate or extent (yield) of phosphodiester formation at a pre-adenylated nick [3]	nick joining activity (prior studies) [4]	effect on the rate of approach to the endpoint of step 3 reaction [5] [fold]
B1	2 % of WT	less active	catalytically active	–	–	–	–
B2	0.2 % of WT	virtually inert	catalytically active	virtually inert	no effect	–	–
B3	–	inert	capable of forming a phosphodiester bond	–	no effect	complete loss	–
B4	–	inert	capable of forming a phosphodiester bond	–	–	complete loss	2

Reference: patent US6787341B2, “Pharmacological targeting of bacterial DNA ligase for treatment and prevention of bacterial infections” (priority 2001, dated 2004)
